The values below come from patent publication US20260042831A1 (XENTRIA, published 2026).

Several values for one entry are separate records, joined by “and”; a condition that tells them apart may be missing. Equal values may be shown once.

In assay [1] the target is T1, FcγRI (UniProt P12314 16-288, limits assumed).
T1 construct: It was immobilized on Ni-NTA biosensors, which implies a His tag; The ELISA paragraph calls it 'His tab-labeled recombinant purified FcγRI'; also called CD64
The experiment in a line: Octet QK384, FcγRI on Ni-NTA biosensors, 7 XTMAB-16 concentrations, 1:1 model fit. In general terms: In BLI a coated tip is dipped into the sample, and binding shifts an interference pattern.

Another assay deals with T2, His-tagged FcγRIIIa (UniProt P08637 17-208, limits assumed).
T2 construct: His-tagged and captured on anti-penta-His biosensors; also called CD16
The experiment in a line: Octet QK384, steady-state KD from binding curves; range stated for the batches.

For assay [2], the target named is T1, FcγRI. The experiment in a line: Octet QK384, FcγRI on Ni-NTA biosensors; range stated for the batches.
The target in assay [3] is TNFα from cynomolgus monkey (cynomolgus monkey, UniProt P79337 77-233, limits assumed). The assay is described as follows: ELISA, cross-species binding studies.
The target of another assay is TNFα from rhesus monkey (rhesus monkey, UniProt P48094 77-233). The assay is described as follows: ELISA, cross-species binding studies. For orientation: In an ELISA, binding on a coated surface is turned into a signal by an enzyme label.
The next assay addresses T3, TNFα from rat (rat, UniProt P16599 80-235).
T3 sequence (looked up): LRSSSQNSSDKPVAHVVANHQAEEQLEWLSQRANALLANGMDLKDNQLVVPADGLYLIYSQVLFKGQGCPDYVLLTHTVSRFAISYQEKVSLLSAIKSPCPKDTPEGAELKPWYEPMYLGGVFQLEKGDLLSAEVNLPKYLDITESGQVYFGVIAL
The experiment in a line: ELISA, cross-species binding studies.

In a further assay the target is TNFα from dog (dog, UniProt P51742 77-233). The experiment in a line: ELISA, cross-species binding studies.

The Kd is a measure of binding affinity in units of concentration.

T1 sequence (P12314 16-288 limits assumed): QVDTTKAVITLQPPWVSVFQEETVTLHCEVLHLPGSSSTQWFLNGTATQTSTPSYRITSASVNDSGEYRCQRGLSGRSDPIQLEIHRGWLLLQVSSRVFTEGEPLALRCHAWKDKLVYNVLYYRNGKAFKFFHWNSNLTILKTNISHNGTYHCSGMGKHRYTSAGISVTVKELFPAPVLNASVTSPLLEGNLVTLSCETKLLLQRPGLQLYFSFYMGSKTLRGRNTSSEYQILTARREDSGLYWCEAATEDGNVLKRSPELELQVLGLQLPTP
Sequence of TNFα from cynomolgus monkey (P79337 77-233 limits assumed): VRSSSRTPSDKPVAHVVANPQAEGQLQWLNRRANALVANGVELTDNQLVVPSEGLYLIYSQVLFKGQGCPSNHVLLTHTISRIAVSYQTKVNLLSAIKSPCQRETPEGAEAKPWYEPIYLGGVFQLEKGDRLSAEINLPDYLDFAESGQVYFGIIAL
Sequence of TNFα from dog (P51742 77-233 limits assumed): as the sequence (P79337 77-233 limits assumed) above, with R2K, Q21E, N30S, V37L, V49I, E53D, N72T, I83F, A109T, D140N counted along it
T2 sequence (P08637 17-208 limits assumed): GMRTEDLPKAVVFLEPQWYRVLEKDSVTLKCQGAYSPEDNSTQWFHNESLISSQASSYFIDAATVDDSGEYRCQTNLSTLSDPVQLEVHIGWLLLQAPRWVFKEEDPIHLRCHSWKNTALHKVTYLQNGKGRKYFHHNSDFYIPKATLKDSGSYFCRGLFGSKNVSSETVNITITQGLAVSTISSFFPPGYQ
Sequence of TNFα from rhesus monkey (P48094 77-233 limits assumed): as the sequence (P79337 77-233 limits assumed) above, with V37L counted along it

B1: XTMAB-16 (antibody, human IgG1, kappa)
heavy: not shown
light: DILLTQSPAILSVSPGERVSFSCRASQFVGSSIHWYQQRTNGSPRLLIKYASESMSGIPSRFSGSGSGTDFTLSINTVESEDIADYYCQQSHSWPFTFGSGTNLEVKRTVAAPSVFIFPPSDEQLKSGTASVVCLLNNFYPREAKVQWKVDNALQSGNSQESVTEQDSKDSTYSLSSTLTLSKADYEKHKVYACEVTHQGLSSPVTKSFNRGEC
notes: The general description says the antibody is sialylated with N-acetylneuraminic acid (Asn 297 in embodiments) and glycosylated at Asn 300; All batches (A-H); also called XTMB-16
Regarding B1, the Kd is 0.68 nM and 0.63 nM in the assay with FcγRI [1]; 300 nM in the assay with His-tagged FcγRIIIa; 0.5 nM and 0.9 nM in the assay with FcγRI [2]. In addition, the binding result (in assay [3]; with TNFα from rhesus monkey; with TNFα from rat; in the assay with TNFα from dog) was “no binding” each time.
